Experimental data as given in article PMC12147029, “Rare SNP in the HELB gene interferes with RPA interaction and cellular function of HELB”.

Columns and labels:
HELB WT = HELB WT (Homo sapiens, UniProt Q8NG08 1-1087); assay: fluorescence anisotropy; 10 mM Mg(OAc)2, no nucleotide; 25 mM HEPES pH 7.5, 10 mM KOAc, 10 mM Mg(OAc)2, 0.1 mM EDTA, 2 mM beta-mercaptoethanol, 0.1 mg/ml BSA, 1 nM DNA, 30 min, room temperature; settings: protein: recombinant; tags: none (His-SUMO cleaved by Ulp1); label: 3'-6-carboxyfluorescein; single strand
HELB D506G = HELB D506G (Homo sapiens, UniProt Q8NG08 1-1087, D506G); assay: as above; settings: protein: recombinant; tags: none (His-SUMO cleaved by Ulp1); label: 3'-6-carboxyfluorescein; single strand
Sequence of HELB D506G (Q8NG08 whole entry D506G): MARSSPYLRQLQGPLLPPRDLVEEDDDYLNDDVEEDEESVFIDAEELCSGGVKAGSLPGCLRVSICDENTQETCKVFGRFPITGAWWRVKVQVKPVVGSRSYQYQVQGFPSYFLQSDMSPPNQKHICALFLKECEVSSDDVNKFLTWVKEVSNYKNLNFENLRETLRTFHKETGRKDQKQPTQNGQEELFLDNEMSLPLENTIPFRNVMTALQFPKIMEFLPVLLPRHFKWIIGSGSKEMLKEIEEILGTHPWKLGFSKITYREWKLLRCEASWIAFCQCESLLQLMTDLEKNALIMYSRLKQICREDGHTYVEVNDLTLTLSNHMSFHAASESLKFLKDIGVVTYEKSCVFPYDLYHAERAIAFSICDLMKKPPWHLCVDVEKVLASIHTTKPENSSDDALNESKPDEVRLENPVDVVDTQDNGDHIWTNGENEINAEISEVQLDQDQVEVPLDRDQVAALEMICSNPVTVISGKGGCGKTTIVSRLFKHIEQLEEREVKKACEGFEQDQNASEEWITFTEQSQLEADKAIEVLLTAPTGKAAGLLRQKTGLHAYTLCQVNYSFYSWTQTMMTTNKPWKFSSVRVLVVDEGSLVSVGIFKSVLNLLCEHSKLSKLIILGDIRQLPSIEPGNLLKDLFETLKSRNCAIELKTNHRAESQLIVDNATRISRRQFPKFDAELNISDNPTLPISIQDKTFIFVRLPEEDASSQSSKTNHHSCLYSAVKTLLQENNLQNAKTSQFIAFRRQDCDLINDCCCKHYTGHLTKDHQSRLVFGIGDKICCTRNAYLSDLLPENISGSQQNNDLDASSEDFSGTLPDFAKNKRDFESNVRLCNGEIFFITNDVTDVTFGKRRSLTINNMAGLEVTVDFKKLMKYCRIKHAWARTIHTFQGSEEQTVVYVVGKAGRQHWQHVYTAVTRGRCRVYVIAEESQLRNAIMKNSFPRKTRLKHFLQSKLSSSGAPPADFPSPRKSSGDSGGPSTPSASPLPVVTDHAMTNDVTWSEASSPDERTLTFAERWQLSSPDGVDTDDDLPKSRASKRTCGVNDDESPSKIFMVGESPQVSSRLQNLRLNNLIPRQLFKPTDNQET

Sequence of HELB WT (Q8NG08 whole entry): as the sequence (Q8NG08 whole entry D506G) above, with G506D counted along it

B1: 3'-FAM-T16 (ssDNA)
DNA: TTTTTTTTTTTTTTTT
Kd (HELB WT): 3.4 ± 0.2 nM | Kd (HELB D506G): 2.2 ± 0.4 nM
